Biological target: filamentous actin (F-actin) (rabbit) (UniProt P68135)
Experiment: co-sedimentation

Chain of CLIP-170 N-terminal fragment H2 (H2 1-481) (P30622 1-481): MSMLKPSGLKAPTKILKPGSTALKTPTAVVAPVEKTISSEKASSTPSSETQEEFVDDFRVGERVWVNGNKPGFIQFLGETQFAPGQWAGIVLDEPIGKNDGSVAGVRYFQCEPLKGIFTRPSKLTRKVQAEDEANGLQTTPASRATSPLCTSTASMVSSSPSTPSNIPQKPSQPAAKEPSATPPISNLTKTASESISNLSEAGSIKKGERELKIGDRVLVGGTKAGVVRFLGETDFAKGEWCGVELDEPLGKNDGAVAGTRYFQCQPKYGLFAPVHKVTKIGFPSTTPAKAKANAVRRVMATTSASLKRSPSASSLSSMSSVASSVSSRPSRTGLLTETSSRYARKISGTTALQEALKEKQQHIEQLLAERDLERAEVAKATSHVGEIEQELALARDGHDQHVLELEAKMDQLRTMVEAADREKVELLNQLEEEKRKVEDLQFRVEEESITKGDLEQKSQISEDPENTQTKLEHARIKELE

Kd: 10 µM | percent of H2 in the pellet with F-actin (self-pelleting subtracted): 26%
Substance: CLIP-170 N-terminal fragment H2 (H2 1-481) (from UniProt P30622 1-481) (domain or fragment)

From paper doi:10.1101/2021.04.27.441644
